Tests used:
[1] = biological target: the molecule itself; experiment: crystal structure; TmPPase in OGNG with 0.4 mM K4PPi, vapour diffusion, 24-26% v/v PEG 400, 50-60 mM Tris-HCl pH 8.5, 2-3 mM MgCl2, 175 mM KCl, 2 mM DTT, 20 °C; time-resolved cryo-trapping after soaking in Na+ trigger solution (0-3600 seconds); molecular replacement with PDB 4AV3
[2] = biological target: the molecule itself; experiment: crystal structure; PaPPase in DM with 2 mM IDP, vapour diffusion, 30-33% v/v PEG 400, 0.1 M MES pH 6.5, 0.05 M LiSO4, 0.05 M NaCl, 20 °C; space group P21; eight datasets combined; molecular replacement with PDB 5LZQ

B1: K+-dependent Na+-pumping membrane-bound pyrophosphatase from Thermotoga maritima (TmPPase), wild type (enzyme, UniProt Q9S5X0 1-726, looked up)
chain: MYVAALFFLIPLVALGFAAANFAAVVRKPEGTERMKEISSYIRSGADSFLAHETKAIFKVAIVIAILLMIFTTWQTGVAFLLGAVMSASAGIVGMKMATRANVRVAEAARTTKKIGPALKVAYQGGSVMGLSVGGFALLGLVLVYLIFGKWMGQVDNLNIYTNWLGINFVPFAMTVSGYALGCSIIAMFDRVGGGVYTKAADMAADLVGKTELNLPEDDPRNPATIADNVGDNVGDVAGLGADLLESFVGAIVSSIILASYMFPIYVQKIGENLVHQVPKETIQALISYPIFFALVGLGCSMLGILYVIVKKPSDNPQRELNISLWTSALLTVVLTAFLTYFYLKDLQGLDVVGFRFGAISPWFSAIIGIFSGILIGFWAEYYTSYRYKPTQFLSKSSIEGTGMVISNGLSLGMKSVFPPTLTLVLGILFADYFAGLYGVAIAALGMLSFVATSVSVDSYGPIADNAGGISEMCELDPEVRKITDHLDAVGNTTAAIGKGFAIGSAIFAALSLFASYMFSQISPSDIGKPPSLVLLLNMLDARVIAGALLGAAITYYFSGYLISAVTKAAMKMVDEIRRQAREIPGLLEGKAKPDYNRCIEITSDNALKQMGYPAFIAILTPLVTGFLLGAEFVGGVLIGTVLSGAMLAILTANSGGAWDNAKKYLEAGNLEGYGKGSEPHKALVIGDTVGDPLKDTVGPSLDILIKIMSVVSVIAVSIFKHVHLF
notes: also called K+-dependent Na+-PPase; TmPPase:Mg2; source: S. cerevisiae BJ1991, purified (hot-solve, nickel-NTA, in OGNG)
B1 was tested, and the “stoichiometry N” value [1] was 2.

B2: K+-independent H+-pumping membrane-bound pyrophosphatase from Pyrobaculum aerophilum (PaPPase), wild type (enzyme, UniProt Q8ZWI8 1-721, looked up)
chain: MNMISYALLGVILGISGVIYAVYLAVWVLRQDPGNEKMRFISQAIATGARAYLFRQYRTLAVLLVILAVLILVAIDMPRRTFGLTALAFIVGALGSMLAGYLGMYVTTRSASRVAQAAATGGMGKALLVSWRAGAVMGLSLASIALLLISGFYLVFRSVLPDDWAVPLVALGFGASLVTLFMRVGGGIYTKAADLGADLVGKVEAGIPEDDPRNPGVIADNVGDNVGDVAGMAADVYESYIVTVTAAIFLAAILGLPTQFIEAIILFAALALVATFAGVNLLKTTGVKHPLSSISLAIYATIGLSVVLFFIGAFTLGLDSTKALALAATTSLGAVIAPLIVKITDYYTSYNYGPVRKIAEQAKISPATVIITGYGVGLMSAIPVIAVIVAVLGISYMIGYYTVPVSGFGELSKYLAGIFGTAMASVGLLVVAGIIITADSYGPVSDNAGGVVEMAGLPDEVREITDVLDSVGNTTKATTKGYAIASAALAALVLFIALIFEIVYSASKILGKGIVDMISESLSGLQLINANVLIGAFLGVALVYFFSSRTLEAVGRTAMEIVEEIRRQFREKPGILEWKEQPDYARVVDIATRRALGEFLIPGLAAIVLPLITGLLLGWNALAGLIMGAIVAGVPRALLMANAGGAWDNAKKYIEIQGLKKTEMHKAAVIGDTVGDPMKDTVGPSLNPLIKVLNTLSVVFTYVIVSTNIALGIWPSGLLPF
notes: also called PaPPase:Mg5IDP; K+-independent H+-PPase; source: S. cerevisiae BJ1991, purified (hot-solve in DDM, nickel-NTA, protein in DM for crystals)
For B2, the “stoichiometry N” value [2] was 2.

Source: publication doi:10.1101/2022.11.07.515396, “Functional and structural asymmetry suggest a unifying principle for catalysis in integral membrane-bound pyrophosphatases” (bioRxiv, 2022)
